The assay deals with L1 (DV1-GV4) antigen: soluble heterodimeric γδ TCR in leucine zipper format (TRDV1/TRGV4) (human). The assay can be described thus: SPR (MASS-2), IgG captured via protein G (100 nM for TS8.2), L1 as analyte, steady-state 1:1 fit.

The text below walks through data of patent US20220403025A1.

Usually Kd stands for the equilibrium constant for the complex coming apart.

L1 (DV1-GV4) antigen: soluble heterodimeric γδ TCR in leucine zipper format (TRDV1/TRGV4) (human), sequence (main, as listed by the source): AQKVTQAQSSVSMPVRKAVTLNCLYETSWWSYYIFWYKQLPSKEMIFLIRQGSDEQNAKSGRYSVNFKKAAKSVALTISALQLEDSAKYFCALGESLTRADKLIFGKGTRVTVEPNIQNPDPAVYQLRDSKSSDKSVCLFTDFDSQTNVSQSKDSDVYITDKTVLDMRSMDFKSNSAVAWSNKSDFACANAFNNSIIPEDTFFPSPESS

With “TS8.2 (commercial anti-Vδ1 antibody; Human TCR Vδ1 purified mAb, ThermoFisher TCR1730)”, the Kd came to 44 nM.
